From patent publication US12697350B2, “Methods and compositions for treating a premature termination codon-mediated disorder” (Tevard Biosciences, Inc., priority 2019, dated 2026) come the findings set out here.

One data set relates to Neuro-2a cells. It is filed as cell-based, mouse. As to the method:
FIG. 23 is a graph depicting cell viability from FIG. 22 as measured by flow cytometry at ~48 hours post transfection. Neuro-2a cells were transfected with an expression construct containing the EGFP-R96X-TGA reporter (“GFP-PTC”) and either (i) transfected with an expression construct including the ArgTCA suppressor tRNA #115 (SEQ ID NO: 18) at the indicated copy number on the same construct, or (ii) treated with ataluren at the indicated concentration, (iii) treated with gentamicin at the indication concentration, or (iv) treated with G418 at the indicated concentration. For all experimental conditions, cell culture medium was replaced with fresh medium ~6 hour after transfection and the indicated drugs at the indicated concentrations were added at this point. A reporter containing wildtype GFP without a PTC (“WT-GFP”) was used as a control. “Mock” indicates mock transfected cells. “4×TCG” indicates cells transfected with an expression construct that contains four copies of a wild-type Arg-tRNA with a TCG anticodon and the EGFP-R96X-TGA reporter. Cell viability was assessed by flow cytometry using 7-Amino Actinomycin D (7-AAD), a membrane impermeant dye that is generally excluded from viable cells.
FIG. 34 is a graph depicting cell viability from FIG. 33 as measured by flow cytometry at ~48 hours post transfection. […] Cell viability was assessed by flow cytometry using 7-Amino Actinomycin D (7-AAD), a membrane impermeant dye that is generally excluded from viable cells.
FIG. 36 is a graph depicting cell viability from FIG. 35 as measured by flow cytometry at ~48 hours post transfection. […] Cell viability was assessed by flow cytometry using 7-Amino Actinomycin D (7-AAD), a membrane impermeant dye that is generally excluded from viable cells. […]

In another data set the test system is EGFP-R96X-TGA. The experiment in a line: Readthrough of suppressor tRNA delivered by AAV-PHP.eB, EGFP-R96X-TGA, 293 cells pre-transfected with LY6A (FIG. 41). It is filed as cell-based, human. The source says:
FIG. 40 is a schematic representation of constructs that were packaged into AAV-PHP.eB capsids. Construct 262 contains wild-type EGFP driven by an EF1a promoter. Construct 269 contains EGFP-R96X-TGA driven by an EF1a promoter (SEQ ID NO: 177) and two copies of the ArgTCA suppressor tRNA #115 (SEQ ID NO: 18) (“TCA-115”) in the context of 55 bps upstream flanking genomic DNA from tRNA-Tyr-GTA-5-1 (SEQ ID NO: 900). Both constructs contain 5′ and 3′ ITR sequences from AAV2, which provide cis-acting elements for AAV replication and packaging.
FIG. 41 depicts readthrough activity of suppressor tRNAs delivered by AAV. AAV-PHP.eB containing the constructs shown in FIG. 40 was produced by Vigene Biosciences. 48 hours prior to AAV transduction, 293 cells were pre-transfected with an expression construct containing the LY6A gene, which is required for robust transduction by AAV-PHP.eB. Cells were transduced at an MOI of 1E5 vg/cell. Where indicated, cells were also transfected with an expression construct containing the EGFP-R96X-TGA reporter (SEQ ID NO: 31) and an expression construct containing the ArgTCA suppressor tRNA #115 (SEQ ID NO: 18). At 72 hours post transduction, the EGFP signal was quantified by immunofluorescence. Live cell images were captured on an EVOS FL Auto 2 imaging system. […]

B1: tRNA-Arg-TCT-2-1-TCA-SUP_no intron (nucleic acid)
chain: GGCTCCGTGGCGCAATGGATAGCGCATTGGACTTCAAATTCAAAGGTTCCGGGTTCGAGTCCCGGCGGAGTCG
modifications: chemistry not fully specified
In the case of B1, in the data set with Neuro-2a cells, the cell viability result was “not accompanied by a decrease in cell viability”. In the data set on EGFP-R96X-TGA (293 cells pre-transfected with LY6A), the “readthrough activity, AAV delivery versus transient transfection” value is “comparable readthrough activity when delivered by AAV or transient transfection”. The “PTC readthrough based on GFP intensity” value in the data set on EGFP-R96X-TGA (AAV-PHP.eB with construct 269 (two copies of #115), MOI 1E5 vg/cell, 72 hours post transduction, normalized to construct 262 (wild-type EGFP)) is on record as ~ 13.2%.
